Literature values in publication PMC1087504.

Molecular target: 3 beta-hydroxysteroid dehydrogenase (Bos taurus) (UniProt P14893)
UniProt P14893, sequence (P14893 whole entry): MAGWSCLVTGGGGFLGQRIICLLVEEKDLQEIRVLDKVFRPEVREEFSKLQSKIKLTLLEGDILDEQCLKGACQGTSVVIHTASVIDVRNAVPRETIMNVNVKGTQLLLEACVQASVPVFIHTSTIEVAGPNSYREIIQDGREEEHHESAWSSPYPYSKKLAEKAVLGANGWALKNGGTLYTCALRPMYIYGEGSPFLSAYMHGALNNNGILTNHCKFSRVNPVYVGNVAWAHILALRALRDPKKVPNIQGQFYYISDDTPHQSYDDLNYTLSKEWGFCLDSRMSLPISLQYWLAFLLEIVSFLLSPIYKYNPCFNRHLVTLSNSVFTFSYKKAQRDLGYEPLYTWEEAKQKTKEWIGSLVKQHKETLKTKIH

For P450scc (from UniProt P00189), the Kd is listed as 0.12 µM.
